We go through one molecule from patent US20220145295A1, “ENZYMATIC RNA SYNTHESIS” (President and Fellows of Harvard College, priority 2018, published 2022).

The subject of this assay is poly dT-15-mer initiator oligonucleotide. In words: Initial activity screen of polymerase μ R387K with divalent cations (rate of ssDNA generation). Format: biochemical. To be noted: 200 μM dNTP, 37° C. The procedure: FIGS. 3A to 3C. […] Denaturing gel electrophoresis analysis of dATP incorporation (FIG. 3B) and rATP incorporation (FIG. 3C) at nucleotide concentrations of 200-50 μM and 5.0-0.62 mM for dATP and rATP, respectively. These reactions were supplemented with 0.25 mM Mn^2+ and Mg^2+. The control reaction consisted of all reaction components except nucleotide. For all reactions, the initiator oligonucleotide was a HPLC-purified poly dT-15-mer.
Human polymerase μ R387K was expressed and purified as described in the materials and methods. Because it was unknown under which reaction conditions polymerase μ R387K functioned optimally, several reaction parameters were initially evaluated. […] Thus, polymerase p R387K, a confirmed DNA/RNA-directed polymerase, is useful for controlled enzymatic RNA synthesis.
Expressed proteins with terminal transferase activity were screened by determining the rate of RNA generation in terms of total RNA concentration and the length/distribution of RNA produced by the protein after incubation with natural rNTPs. […] The length of the RNA produced in these reactions was determined by comparing products to a 100-nt ssDNA ladder (Simplex Biosciences) using a 15% TBE-Urea denaturing gel (Thermo EC6885) following the manufacturer's protocol. […]

B1: polymerase μ R387K: Human polymerase μ with point mutation R387K, expressed and purified; SEQ ID NO: 1 (protein, listed as Homo sapiens)
chain: MLPKRRRARVGSPSGDAASSTPPSTRFPGVAIYLVEPRMGRSRRAFLTGLARSKGFRVLDACSSEATHVVMEETSAEEAVSWQERRMAAAPPGCTPPALLDISWLTESLGAGQPVPVECRHRLEVAGPRKGPLSPAWMPAYACQRPTPLTHHNTGLSEALEILAEAAGFEGSEGRLLTFCRAASVLKALPSPVTTLSQLQGLPHFGEHSSRVVQELLEHGVCEEVERVRRSERYQTMKLFTQIFGVGVKTADRWYREGLRTLDDLREQPQKLTQQQKAGLQHHQDLSTPVLRSDVDALQQVVEEAVGQALPGATVTLTGGFRRGKLQGHDVDFLITHPKEGQEAGLLPRVMCRLQDQGLILYHQHQHSCCESPTRLAQQSHMDAFEKSFCIFRLPQPPGAAVGGSTRPCPSWKAVRVDLVVAPVSQFPFALLGWTGSKLFQRELRRFSRKEKGLWLNSHGLFDPEQKTFFQAASEEDIFRHLGLEYLPPEQRNA
In the case of B1, the “rate of ssDNA generation” value reads like this: (0.25 mM Co^2+, worst rate) ~100 RFU/minute; (combination of Mn^2+ and Mg^2+ at 0.25 mM, highest rate) ~650 RFU/minute.
